T1: TNFR1 (Homo sapiens, UniProt P19438)
T1 chain: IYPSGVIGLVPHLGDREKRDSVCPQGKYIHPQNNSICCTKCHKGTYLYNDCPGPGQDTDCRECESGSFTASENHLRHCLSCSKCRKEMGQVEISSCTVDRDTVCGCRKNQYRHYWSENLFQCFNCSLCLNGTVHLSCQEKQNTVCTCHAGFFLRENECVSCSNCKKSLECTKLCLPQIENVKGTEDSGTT

B1: L28T (designed binder)
chain: SMEEEVEKAAKEYEKKKKEAIEKHLEKTKAKDKEAAERFLKELEEAAKEYAKDEAKTMSEEEAKRRAKKYKEKVLLSELSEEEQKEIKEAEEKLVRTILKYVEEAAK
B2: K71S (designed binder)
chain: SMEEEVEKAAKEYEKKKKEAIEKHLEKLKAKDKEAAERFLKELEEAAKEYAKDEAKTMSEEEAKRRAKKYSEKVLLSELSEEEQKEIKEAEEKLVRTILKYVEEAAK
B3: D32F (designed binder)
chain: SMEEEVEKAAKEYEKKKKEAIEKHLEKLKAKFKEAAERFLKELEEAAKEYAKDEAKTMSEEEAKRRAKKYKEKVLLSELSEEEQKEIKEAEEKLVRTILKYVEEAAK
B4: A90V (designed binder)
chain: SMEEEVEKAAKEYEKKKKEAIEKHLEKLKAKDKEAAERFLKELEEAAKEYAKDEAKTMSEEEAKRRAKKYKEKVLLSELSEEEQKEIKEVEEKLVRTILKYVEEAAK
B5: A20V (designed binder)
chain: SMEEEVEKAAKEYEKKKKEVIEKHLEKLKAKDKEAAERFLKELEEAAKEYAKDEAKTMSEEEAKRRAKKYKEKVLLSELSEEEQKEIKEAEEKLVRTILKYVEEAAK
B6: R38L (designed binder)
chain: SMEEEVEKAAKEYEKKKKEAIEKHLEKLKAKDKEAAELFLKELEEAAKEYAKDEAKTMSEEEAKRRAKKYKEKVLLSELSEEEQKEIKEAEEKLVRTILKYVEEAAK
B7: E83C (designed binder)
chain: SMEEEVEKAAKEYEKKKKEAIEKHLEKLKAKDKEAAERFLKELEEAAKEYAKDEAKTMSEEEAKRRAKKYKEKVLLSELSEECQKEIKEAEEKLVRTILKYVEEAAK
B8: E89D (designed binder)
chain: SMEEEVEKAAKEYEKKKKEAIEKHLEKLKAKDKEAAERFLKELEEAAKEYAKDEAKTMSEEEAKRRAKKYKEKVLLSELSEEEQKEIKDAEEKLVRTILKYVEEAAK
B9: K93H (designed binder)
chain: SMEEEVEKAAKEYEKKKKEAIEKHLEKLKAKDKEAAERFLKELEEAAKEYAKDEAKTMSEEEAKRRAKKYKEKVLLSELSEEEQKEIKEAEEHLVRTILKYVEEAAK
B10: K31F (designed binder)
chain: SMEEEVEKAAKEYEKKKKEAIEKHLEKLKAFDKEAAERFLKELEEAAKEYAKDEAKTMSEEEAKRRAKKYKEKVLLSELSEEEQKEIKEAEEKLVRTILKYVEEAAK
B11: L25G (designed binder)
chain: SMEEEVEKAAKEYEKKKKEAIEKHGEKLKAKDKEAAERFLKELEEAAKEYAKDEAKTMSEEEAKRRAKKYKEKVLLSELSEEEQKEIKEAEEKLVRTILKYVEEAAK
B12: E44D (designed binder)
chain: SMEEEVEKAAKEYEKKKKEAIEKHLEKLKAKDKEAAERFLKELDEAAKEYAKDEAKTMSEEEAKRRAKKYKEKVLLSELSEEEQKEIKEAEEKLVRTILKYVEEAAK
B13: E91F (designed binder)
chain: SMEEEVEKAAKEYEKKKKEAIEKHLEKLKAKDKEAAERFLKELEEAAKEYAKDEAKTMSEEEAKRRAKKYKEKVLLSELSEEEQKEIKEAFEKLVRTILKYVEEAAK
B14: K71G (designed binder)
chain: SMEEEVEKAAKEYEKKKKEAIEKHLEKLKAKDKEAAERFLKELEEAAKEYAKDEAKTMSEEEAKRRAKKYGEKVLLSELSEEEQKEIKEAEEKLVRTILKYVEEAAK
B15: K48C (designed binder)
chain: SMEEEVEKAAKEYEKKKKEAIEKHLEKLKAKDKEAAERFLKELEEAACEYAKDEAKTMSEEEAKRRAKKYKEKVLLSELSEEEQKEIKEAEEKLVRTILKYVEEAAK
B16: K23A (designed binder)
chain: SMEEEVEKAAKEYEKKKKEAIEAHLEKLKAKDKEAAERFLKELEEAAKEYAKDEAKTMSEEEAKRRAKKYKEKVLLSELSEEEQKEIKEAEEKLVRTILKYVEEAAK
B17: E26H (designed binder)
chain: SMEEEVEKAAKEYEKKKKEAIEKHLHKLKAKDKEAAERFLKELEEAAKEYAKDEAKTMSEEEAKRRAKKYKEKVLLSELSEEEQKEIKEAEEKLVRTILKYVEEAAK
B18: E45W (designed binder)
chain: SMEEEVEKAAKEYEKKKKEAIEKHLEKLKAKDKEAAERFLKELEWAAKEYAKDEAKTMSEEEAKRRAKKYKEKVLLSELSEEEQKEIKEAEEKLVRTILKYVEEAAK
B19: S80H (designed binder)
chain: SMEEEVEKAAKEYEKKKKEAIEKHLEKLKAKDKEAAERFLKELEEAAKEYAKDEAKTMSEEEAKRRAKKYKEKVLLSELHEEEQKEIKEAEEKLVRTILKYVEEAAK
B20: V102W (designed binder)
chain: SMEEEVEKAAKEYEKKKKEAIEKHLEKLKAKDKEAAERFLKELEEAAKEYAKDEAKTMSEEEAKRRAKKYKEKVLLSELSEEEQKEIKEAEEKLVRTILKYWEEAAK
B21: E12K (designed binder)
chain: SMEEEVEKAAKKYEKKKKEAIEKHLEKLKAKDKEAAERFLKELEEAAKEYAKDEAKTMSEEEAKRRAKKYKEKVLLSELSEEEQKEIKEAEEKLVRTILKYVEEAAK
B22: S59A (designed binder)
chain: SMEEEVEKAAKEYEKKKKEAIEKHLEKLKAKDKEAAERFLKELEEAAKEYAKDEAKTMAEEEAKRRAKKYKEKVLLSELSEEEQKEIKEAEEKLVRTILKYVEEAAK
B23: K41S (designed binder)
chain: SMEEEVEKAAKEYEKKKKEAIEKHLEKLKAKDKEAAERFLSELEEAAKEYAKDEAKTMSEEEAKRRAKKYKEKVLLSELSEEEQKEIKEAEEKLVRTILKYVEEAAK
B24: K11T (designed binder)
chain: SMEEEVEKAATEYEKKKKEAIEKHLEKLKAKDKEAAERFLKELEEAAKEYAKDEAKTMSEEEAKRRAKKYKEKVLLSELSEEEQKEIKEAEEKLVRTILKYVEEAAK
B25: I21F (designed binder)
chain: SMEEEVEKAAKEYEKKKKEAFEKHLEKLKAKDKEAAERFLKELEEAAKEYAKDEAKTMSEEEAKRRAKKYKEKVLLSELSEEEQKEIKEAEEKLVRTILKYVEEAAK
B26: I87N (designed binder)
chain: SMEEEVEKAAKEYEKKKKEAIEKHLEKLKAKDKEAAERFLKELEEAAKEYAKDEAKTMSEEEAKRRAKKYKEKVLLSELSEEEQKENKEAEEKLVRTILKYVEEAAK
B27: A105R (designed binder)
chain: SMEEEVEKAAKEYEKKKKEAIEKHLEKLKAKDKEAAERFLKELEEAAKEYAKDEAKTMSEEEAKRRAKKYKEKVLLSELSEEEQKEIKEAEEKLVRTILKYVEERAK
B28: E3T (designed binder)
chain: SMTEEVEKAAKEYEKKKKEAIEKHLEKLKAKDKEAAERFLKELEEAAKEYAKDEAKTMSEEEAKRRAKKYKEKVLLSELSEEEQKEIKEAEEKLVRTILKYVEEAAK
B29: E7I (designed binder)
chain: SMEEEVIKAAKEYEKKKKEAIEKHLEKLKAKDKEAAERFLKELEEAAKEYAKDEAKTMSEEEAKRRAKKYKEKVLLSELSEEEQKEIKEAEEKLVRTILKYVEEAAK
B30: E7Q (designed binder)
chain: SMEEEVQKAAKEYEKKKKEAIEKHLEKLKAKDKEAAERFLKELEEAAKEYAKDEAKTMSEEEAKRRAKKYKEKVLLSELSEEEQKEIKEAEEKLVRTILKYVEEAAK
B31: K17P (designed binder)
chain: SMEEEVEKAAKEYEKKPKEAIEKHLEKLKAKDKEAAERFLKELEEAAKEYAKDEAKTMSEEEAKRRAKKYKEKVLLSELSEEEQKEIKEAEEKLVRTILKYVEEAAK
B32: K17I (designed binder)
chain: SMEEEVEKAAKEYEKKIKEAIEKHLEKLKAKDKEAAERFLKELEEAAKEYAKDEAKTMSEEEAKRRAKKYKEKVLLSELSEEEQKEIKEAEEKLVRTILKYVEEAAK
B33: A90L (designed binder)
chain: SMEEEVEKAAKEYEKKKKEAIEKHLEKLKAKDKEAAERFLKELEEAAKEYAKDEAKTMSEEEAKRRAKKYKEKVLLSELSEEEQKEIKELEEKLVRTILKYVEEAAK

This test addresses T1, TNFR1. Briefly: yeast display SC50.
For B1, the “apparent Kd (screen)” value was determined as 0.79 nM.

For the molecule B2, the “apparent Kd (screen)” value was determined as 0.869 nM.

As to B3, the “apparent Kd (screen)” value was 6.43 nM.

In the case of B4, the “apparent Kd (screen)” value stood at 1.27 nM.

On to B5, for which the “apparent Kd (screen)” value amounted to 2.73 nM.

Regarding B6, the “apparent Kd (screen)” value worked out at 1.16 nM.

Consider B7, for which the “apparent Kd (screen)” value worked out at 0.446 nM.

Consider B8, for which the “apparent Kd (screen)” value was determined as 0.653 nM.

For the molecule B9, the “apparent Kd (screen)” value turned out to be 0.869 nM.

As to B10, the “apparent Kd (screen)” value is 0.446 nM.

For the molecule B11, the “apparent Kd (screen)” value turned out to be 1.05 nM.

Consider B12, for which the “apparent Kd (screen)” value was 0.869 nM.

Take B13: the “apparent Kd (screen)” value turned out to be 12.5 nM.

Turning to B14, the “apparent Kd (screen)” value came to 5.31 nM.

Turning to B15, the “apparent Kd (screen)” value amounted to 0.49 nM.

Consider B16, for which the “apparent Kd (screen)” value was 0.446 nM.

As to B17, the “apparent Kd (screen)” value came out at 0.539 nM.

For the molecule B18, the “apparent Kd (screen)” value came out at 1.27 nM.

In the case of B19, the “apparent Kd (screen)” value stood at 0.956 nM.

With B20, the “apparent Kd (screen)” value came to 1.4 nM.

Take B21: the “apparent Kd (screen)” value worked out at 0.446 nM.

On to B22, for which the “apparent Kd (screen)” value is 0.593 nM.

For B23, the “apparent Kd (screen)” value amounted to 0.869 nM.

For the molecule B24, the “apparent Kd (screen)” value was found to be 0.446 nM.

Turning to B25, the “apparent Kd (screen)” value is 0.49 nM.

For B26, the “apparent Kd (screen)” value turned out to be 12.5 nM.

In the case of B27, the “apparent Kd (screen)” value worked out at 2.73 nM.

Consider B28, for which the “apparent Kd (screen)” value is 1.4 nM.

B29: the “apparent Kd (screen)” value stood at 26.9 nM.

As to B30, the “apparent Kd (screen)” value stood at 4.39 nM.

For B31, the “apparent Kd (screen)” value was 22.2 nM.

For the molecule B32, the “apparent Kd (screen)” value amounted to 0.956 nM.

In the case of B33, the “apparent Kd (screen)” value amounted to 0.446 nM.
